Measurements: US9266937 (UNIVERSITY OF CENTRAL FLORIDA RESEARCH FOUNDATION, dated 2016)

Target: T1, IL-7R/Fc fusion protein
T1 construct: Loaded on the SPR chip; also called IL-7 receptor
Assay: SPR, IL-7R/Fc loaded chip, Scrubber2
Protocol: Fc fusion protein was determined by surface plasmon resonance (SPR). Association (Ka), Dissociation (Kd) and total binding constant (KD) were calculated using the Scrubber2 program (BioLogic Software).

T1 sequence (P16871 whole entry, the tested form may be a part): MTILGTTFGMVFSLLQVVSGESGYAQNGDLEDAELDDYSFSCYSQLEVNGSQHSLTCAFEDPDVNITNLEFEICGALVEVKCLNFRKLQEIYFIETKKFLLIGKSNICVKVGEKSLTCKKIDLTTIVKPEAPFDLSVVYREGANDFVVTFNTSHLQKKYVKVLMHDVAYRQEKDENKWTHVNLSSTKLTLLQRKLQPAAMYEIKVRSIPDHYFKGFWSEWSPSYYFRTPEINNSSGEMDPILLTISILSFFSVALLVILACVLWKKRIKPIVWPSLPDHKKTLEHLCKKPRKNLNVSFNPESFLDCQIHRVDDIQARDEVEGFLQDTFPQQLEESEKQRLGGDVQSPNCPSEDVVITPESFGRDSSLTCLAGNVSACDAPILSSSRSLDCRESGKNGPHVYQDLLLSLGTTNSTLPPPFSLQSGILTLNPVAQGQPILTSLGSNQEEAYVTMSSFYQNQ

Kd: 100 nM
B1: IL-7AT, attenuated IL-7 with Thr97 substituted by Val (ligand)
chain: DCDIEGKDGKQYESVLMVSIDQLLDSMKEIGSNCLNNEFNFFKRHICDANKEGMFLFRAARKLRQFLKMNSVGDFDLHLLKVSEGTTILLNCTGQVKGRKPAALGEAQPTKSLEENKSLKEQKKLNDLCFLKRLLQEIKTCWNKILMGTKEH
notes: also called IL-7 ligand; HMM-IL-7AT
